According to US20150307590A1 (GOVERNORS OF THE UNIVERSITY OF ALBERTA, published 2015):

T1: human IL-28R alpha subunit (human, UniProt Q8IU57 21-228, limits assumed)
T1 construct: also called IL28R1; IL-28R1
T1 sequence: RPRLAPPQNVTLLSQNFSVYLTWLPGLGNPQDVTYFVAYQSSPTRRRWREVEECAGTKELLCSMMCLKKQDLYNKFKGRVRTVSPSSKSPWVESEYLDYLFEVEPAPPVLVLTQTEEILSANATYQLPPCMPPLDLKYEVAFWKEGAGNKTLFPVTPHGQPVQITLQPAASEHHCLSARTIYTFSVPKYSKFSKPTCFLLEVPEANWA


Biological target: T1, human IL-28R alpha subunit
Assay: ELISA (right panel)

binding result | Binder
binds | ELASFKKARDALEESLKL (also called 28pep1; Pep1) [Peptide 1 (IL29-1)]
binds | ELQAFKRAKDALEESLLL (also called 28pep2; Pep2) [Peptide 2 (IL28-1)]
binds | LLKDCKCRSRLFPRTWDLRQ (also called 28pep15) [Peptide 15 (IL28BT-2)]
binds | LLKDCRCHSRLFPRTWDLRQ (also called 28pep16) [Peptide 16 (IL28AT-2)]
binds | KLKNWSCSSPVFPGNWDLRL (also called 28pep17; p17) [Peptide 17 (IL29T-2)]
binds | EATADTDPALGDVLDQPL (also called 28pep18) [Peptide 18 (IL28BT-3)]

Biological target: T1, human IL-28R alpha subunit
Assay: Biacore assay (left panel), n=6

binding result | Binder
binds | human IL-28A (ligand, also called IFN-λ2; interferon-lambda-2) VPVARLHGALPDARGCHIAQFKSLSPQELQAFKRAKDALEESLLLKDCRCHSRLFPRTWDLRQLQVRERPMALEAELALTLKVLEATADTDPALVDVLDQPLHTLHHILSQFRACIQPQPTAGPRTRGRLHHWLYRLQEAPKKESPGCLEASVTFNLFRLLTRDLNCVASGDLCV
binds | human IL-28B (ligand, also called IFN-λ3; interferon-lambda-3) VPVARLRGALPDARGCHIAQFKSLSPQELQAFKRAKDALEESLLLKDCKCRSRLFPRTWDLRQLQVRERPVALEAELALTLKVLEATADTDPALGDVLDQPLHTLHHILSQLRACIQPQPTAGPRTRGRLHHWLHRLQEAPKKESPGCLEASVTFNLFRLLTRDLNCVASGDLCV
binds | human IL-29 (ligand, also called IFN-λ1; interferon-lambda-1) GPVPTSKPTTTGKGCHIGRFKSLSPQELASFKKARDALEESLKLKNWSCSSPVFPGNWDLRLLQVRERPVALEAELALTLKVLEAAAGPALEDVLDQPLHTLHHILSQLQACIQPQPTAGPRPRGRLHHWLHRLQEAPKKESAGCLEASVTFNLFRLLTRDLKYVADGNLCLRTSTHPEST
